Among the data in PMC12667214, “Phosphomimetic mutations near active sites of proteins in Thermus thermophilus suggest a widespread regulatory mechanism” (FEBS Open Bio, 2025) are Km and kcat values, retold here.

Usually Km stands for the concentration of substrate that gives half-maximal velocity. Broadly, the kcat is the number of substrate molecules converted per active site and unit of time at saturation.

Substrate in the series “purified protein”: O=c1ccn([C@@H]2O[C@H](COP(=O)(O)O)[C@@H](O)[C@H]2O)c(=O)[nH]1
Kind of series: purified protein. The conditions noted are these: 1 mM ATP, 25 °C, pH 7.5, 5 mM MgCl2, 25.0 °C.

Substrate in series [1]: Nc1ncnc2c1ncn2[C@@H]1O[C@H](COP(=O)(O)OP(=O)(O)OP(=O)(O)O)[C@@H](O)[C@H]1O
Kind of series: pyruvate kinase/lactate dehydrogenase coupled assay, A340. It counts as biochemical, Thermus thermophilus. The conditions noted are these: excess UMP (methods print 1 mM CMP), 25 °C, pH 7.5, 5 mM MgCl2.

Substrate in series [2]: Nc1ccn([C@@H]2O[C@H](COP(=O)(O)O)[C@@H](O)[C@H]2O)c(=O)n1
The series is described as above. The conditions noted are these: 1 mM ATP, 25 °C, pH 7.5, 5 mM MgCl2. The series is classed as biochemical, Thermus thermophilus. The source says: (§1) pyruvate kinase/lactate dehydrogenase coupled assay, A340 on ttCMPK (CMP kinase)

Substrate in series [3]: Nc1ncnc2c1ncn2[C@@H]1O[C@H](COP(=O)(O)OP(=O)(O)OP(=O)(O)O)[C@@H](O)[C@H]1O
The description is as above. The conditions noted are these: 1 mM CMP, 25 °C, pH 7.5, 5 mM MgCl2. The series is classed as biochemical, Thermus thermophilus.
From the text: as §1

B1: ttUMPK (UMP kinase) (Thermus thermophilus HB8) (protein)
chain: MKYKRVLLKLSGEFLTRNGFGIEPEATQALAREIKAAYDTGVQLAIVIGAGNLWRGARQGVGMDRATADYIGMLATIMNALALQDALESLGVPTRVQTALTITQVAEPYIRRRALRHLEKERIVIFGGGTGNPFFSTDTAAALRALEVGAEVVLMAKNKVDGVYSDDPRKNPEAVRFDELTYLEVLNRGLQVMDTTAITLCMEAGLPIVVFDIFKPGALVGIIQGEKVGTLIH
notes: recombinant in E. coli C41(DE3)pRARE2, pET-11a, no tag mentioned; hexamer (prokaryotic UMP kinases)
B1: in the series “purified protein”, the Km was determined as 74 ± 10 µM and the kcat came to 21 ± 1 s⁻¹. For the same protein, in series [1], the Km was found to be 214 ± 7 µM and the kcat was 14 ± 0 s⁻¹.

B2: ttCMPK (CMP kinase) (Thermus thermophilus HB8) (protein)
chain: MRGIVTIDGPSASGKSSVARRVAAALGVPYLSSGLLYRAAAFLALRAGVDPGDEEGLLALLEGLGVRLLAQAEGNRVLADGEDLTSFLHTPEVDRVVSAVARLPGVRAWVNRRLKEVPPPFVAEGRDMGTAVFPEAAHKFYLTASPEVRAWRRARERPQAYEEVLRDLLRRDERDKAQSAPAPDALVLDTGGMTLDEVVAWVLAHIRR
notes: recombinant in E. coli C41(DE3)pRARE2, pET-11a, no tag mentioned; monomer
For the protein B2, in series [2], the Km is 61 ± 19 µM and the kcat was 54 ± 16 s⁻¹. Moreover, in series [3], the Km turned out to be 53 ± 1 µM and the kcat is 40 ± 1 s⁻¹.
